# Measurements as given in patent publication US20220025055A1 (Boehringer Ingelheim, published 2022).
# T1: human FLT3 (FMS-like tyrosine kinase 3) (human, UniProt P36888 27-993)
# T1 sequence (looked up): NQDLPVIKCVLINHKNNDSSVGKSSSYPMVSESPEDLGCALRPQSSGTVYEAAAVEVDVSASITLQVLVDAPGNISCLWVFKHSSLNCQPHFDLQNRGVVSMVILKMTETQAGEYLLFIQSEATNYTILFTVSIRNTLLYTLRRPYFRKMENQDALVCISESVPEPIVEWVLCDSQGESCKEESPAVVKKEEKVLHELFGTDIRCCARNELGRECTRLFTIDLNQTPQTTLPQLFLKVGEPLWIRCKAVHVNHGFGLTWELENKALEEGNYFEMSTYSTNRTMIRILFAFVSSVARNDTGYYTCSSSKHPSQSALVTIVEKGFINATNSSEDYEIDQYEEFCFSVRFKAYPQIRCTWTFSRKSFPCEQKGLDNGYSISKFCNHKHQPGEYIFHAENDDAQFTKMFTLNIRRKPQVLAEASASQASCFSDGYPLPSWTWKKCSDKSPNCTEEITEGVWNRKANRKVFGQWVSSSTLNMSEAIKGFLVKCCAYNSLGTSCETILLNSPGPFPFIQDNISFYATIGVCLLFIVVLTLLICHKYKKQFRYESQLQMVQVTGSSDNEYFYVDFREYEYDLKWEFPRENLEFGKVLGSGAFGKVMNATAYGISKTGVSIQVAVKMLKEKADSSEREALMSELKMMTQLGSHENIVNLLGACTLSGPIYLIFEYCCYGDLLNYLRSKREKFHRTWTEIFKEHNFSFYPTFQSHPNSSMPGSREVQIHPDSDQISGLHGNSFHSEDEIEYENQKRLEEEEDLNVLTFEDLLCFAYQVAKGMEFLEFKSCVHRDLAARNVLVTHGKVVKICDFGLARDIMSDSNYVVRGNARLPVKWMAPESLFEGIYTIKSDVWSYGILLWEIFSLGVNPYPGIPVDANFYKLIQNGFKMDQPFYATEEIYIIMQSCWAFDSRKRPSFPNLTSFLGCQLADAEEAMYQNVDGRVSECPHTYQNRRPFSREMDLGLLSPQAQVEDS
# Biological target: T1, human FLT3 (FMS-like tyrosine kinase 3)
# Experiment: cell-based or functional assay
row,Binder,"Single dose STAT5-Luc assay, activity relative to NB1016 (chimeric), antibody at 1 nM [%]"
1,"Humanized VH5 x Humanized VL4 (antibody, V domains shown) VH: EVQLVESGGVVVQPGGSLRLSCAPSGFTFSNYGMAWVRQAPGKGLEWVSSIHSGGGDTYYADSVKGRFTISRDNSKNSLYLQMNSLRTEDTALYYCARGRTPTGYYFDHWGQGTMVTVSS VL: DIQMTQSPSSLSASVGDRVTITCRASEGIHNGLAWYQQKPGKAPKRLIYNANSLHSRVPSRFSGSGSGTEFTLTISSLQPEDFATYYCQQYYDYPLTFGQGTKLEIK",77
2,"Humanized VH1 x Humanized VL4 (antibody, V domains shown) VH: EVQLLESGGGLVQPGGSLRLSCAPSGFTFSNYGMAWVRQAPGKGLEWVSSIHSGGGDTYYRDSVKGRFTISRDNSKNTLYLQMNSLRAEDTAVYYCARGRTPTGYYFDHWGQGTMVTVSS VL: DIQMTQSPSSLSASVGDRVTITCRASEGIHNGLAWYQQKPGKAPKRLIYNANSLHSRVPSRFSGSGSGTEFTLTISSLQPEDFATYYCQQYYDYPLTFGQGTKLEIK",91
3,"Humanized VH5 x Humanized VL5 (antibody, V domains shown) VH: EVQLVESGGVVVQPGGSLRLSCAPSGFTFSNYGMAWVRQAPGKGLEWVSSIHSGGGDTYYADSVKGRFTISRDNSKNSLYLQMNSLRTEDTALYYCARGRTPTGYYFDHWGQGTMVTVSS VL: EIVMTQSPATLSVSPGERATLSCRASEGIHNGLAWYQQKPGQAPRLLIYNANSLHSGIPARFSGSGSGTEFTLTISSLQSEDFAVYFCQQYYDYPLTFGQGTKLEIK",75
4,"Humanized VH1 x Humanized VL2 (antibody, V domains shown) VH: EVQLLESGGGLVQPGGSLRLSCAPSGFTFSNYGMAWVRQAPGKGLEWVSSIHSGGGDTYYRDSVKGRFTISRDNSKNTLYLQMNSLRAEDTAVYYCARGRTPTGYYFDHWGQGTMVTVSS VL: AIQMTQSPSSLSASVGDRVTITCRASEGIHNGLAWYQQKPGKAPKLLIYNANSLHSGVPSRFSGSGSGTDFTLTISSLQPEDFATYYCQQYYDYPLTFGQGTKLEIK",72

# Biological target: T1, human FLT3 (FMS-like tyrosine kinase 3)
# Experiment: cell-based or functional assay
# Remark: another data set of the same source
row,Binder,EC50 in AML5 proliferation assay [nM]
1,"Humanized VH3 x Humanized VL1 (antibody, V domains shown) VH: EVQLVESGGGLVQPGGSLRLSCAPSGFTFSNYGMAWVRQAPGKGLVWVSSIHSGGGDTYYRDSVKGRFTISRDNAKNTLYLQMNSLRAEDTAVYYCARGRTPTGYYFDHWGQGTMVTVSS VL: DIQMTQSPSSLSASVGDRVTITCRASEGIHNGLAWYQQKPGKVPKLLIYNANSLHSGVPSRFSGSGSGTDFTLTISSLQPEDVATYFCQQYYDYPLTFGQGTKLEIK",0.076
2,"Humanized VH3 x Humanized VL5 (antibody, V domains shown) VH: EVQLVESGGGLVQPGGSLRLSCAPSGFTFSNYGMAWVRQAPGKGLVWVSSIHSGGGDTYYRDSVKGRFTISRDNAKNTLYLQMNSLRAEDTAVYYCARGRTPTGYYFDHWGQGTMVTVSS VL: EIVMTQSPATLSVSPGERATLSCRASEGIHNGLAWYQQKPGQAPRLLIYNANSLHSGIPARFSGSGSGTEFTLTISSLQSEDFAVYFCQQYYDYPLTFGQGTKLEIK",0.07
3,"Humanized VH4 x Humanized VL3 (antibody, V domains shown) VH: QVQLVESGGGVVQPGRSLRLSCAASGFTFSNYGMAWVRQAPGKGLEWVASIHSGGGDTYYRDSVKGRFTISRDNSKNTLYLQMNSLRAEDTATYYCARGRTPTGYYFDHWGQGTMVTVSS VL: AIQLTQSPSSLSASVGDRVTITCRASEGIHNGLAWYQQKPGKAPKLLIYNANSLHSRVPSRFSGSGSGTDFTLTISSLQPEDFATYFCQQYYDYPLTFGQGTKLEIK",0.091
4,"Humanized VH1 x Humanized VL5 (antibody, V domains shown) VH: EVQLLESGGGLVQPGGSLRLSCAPSGFTFSNYGMAWVRQAPGKGLEWVSSIHSGGGDTYYRDSVKGRFTISRDNSKNTLYLQMNSLRAEDTAVYYCARGRTPTGYYFDHWGQGTMVTVSS VL: EIVMTQSPATLSVSPGERATLSCRASEGIHNGLAWYQQKPGQAPRLLIYNANSLHSGIPARFSGSGSGTEFTLTISSLQSEDFAVYFCQQYYDYPLTFGQGTKLEIK",0.097
5,"Humanized VH1 x Humanized VL3 (antibody, V domains shown) VH: EVQLLESGGGLVQPGGSLRLSCAPSGFTFSNYGMAWVRQAPGKGLEWVSSIHSGGGDTYYRDSVKGRFTISRDNSKNTLYLQMNSLRAEDTAVYYCARGRTPTGYYFDHWGQGTMVTVSS VL: AIQLTQSPSSLSASVGDRVTITCRASEGIHNGLAWYQQKPGKAPKLLIYNANSLHSRVPSRFSGSGSGTDFTLTISSLQPEDFATYFCQQYYDYPLTFGQGTKLEIK",0.105
6,"Humanized VH3 x Humanized VL3 (antibody, V domains shown) VH: EVQLVESGGGLVQPGGSLRLSCAPSGFTFSNYGMAWVRQAPGKGLVWVSSIHSGGGDTYYRDSVKGRFTISRDNAKNTLYLQMNSLRAEDTAVYYCARGRTPTGYYFDHWGQGTMVTVSS VL: AIQLTQSPSSLSASVGDRVTITCRASEGIHNGLAWYQQKPGKAPKLLIYNANSLHSRVPSRFSGSGSGTDFTLTISSLQPEDFATYFCQQYYDYPLTFGQGTKLEIK",0.051

# Further lines, results first:
row,EC50 in AML5 proliferation assay [nM],Binder
1,0.095,"Humanized VH4 x Humanized VL4 (antibody, V domains shown) VH: QVQLVESGGGVVQPGRSLRLSCAASGFTFSNYGMAWVRQAPGKGLEWVASIHSGGGDTYYRDSVKGRFTISRDNSKNTLYLQMNSLRAEDTATYYCARGRTPTGYYFDHWGQGTMVTVSS VL: DIQMTQSPSSLSASVGDRVTITCRASEGIHNGLAWYQQKPGKAPKRLIYNANSLHSRVPSRFSGSGSGTEFTLTISSLQPEDFATYYCQQYYDYPLTFGQGTKLEIK"
2,0.098,"Humanized VH4 x Humanized VL5 (antibody, V domains shown) VH: QVQLVESGGGVVQPGRSLRLSCAASGFTFSNYGMAWVRQAPGKGLEWVASIHSGGGDTYYRDSVKGRFTISRDNSKNTLYLQMNSLRAEDTATYYCARGRTPTGYYFDHWGQGTMVTVSS VL: EIVMTQSPATLSVSPGERATLSCRASEGIHNGLAWYQQKPGQAPRLLIYNANSLHSGIPARFSGSGSGTEFTLTISSLQSEDFAVYFCQQYYDYPLTFGQGTKLEIK"
3,0.08,"Humanized VH2 x Humanized VL1 (antibody, V domains shown) VH: EVQLVESGGGLVQPGGSLRLSCAASGFTFSNYGMAWVRQAPGKGLEWVASIHSGGGDTYYRDSVKGRFTISRDNAKNSLYLQMNSLRAEDTAVYYCARGRTPTGYYFDHWGQGTMVTVSS VL: DIQMTQSPSSLSASVGDRVTITCRASEGIHNGLAWYQQKPGKVPKLLIYNANSLHSGVPSRFSGSGSGTDFTLTISSLQPEDVATYFCQQYYDYPLTFGQGTKLEIK"
4,0.082,"Humanized VH4 x Humanized VL1 (antibody, V domains shown) VH: QVQLVESGGGVVQPGRSLRLSCAASGFTFSNYGMAWVRQAPGKGLEWVASIHSGGGDTYYRDSVKGRFTISRDNSKNTLYLQMNSLRAEDTATYYCARGRTPTGYYFDHWGQGTMVTVSS VL: DIQMTQSPSSLSASVGDRVTITCRASEGIHNGLAWYQQKPGKVPKLLIYNANSLHSGVPSRFSGSGSGTDFTLTISSLQPEDVATYFCQQYYDYPLTFGQGTKLEIK"
5,0.091,"Humanized VH2 x Humanized VL3 (antibody, V domains shown) VH: EVQLVESGGGLVQPGGSLRLSCAASGFTFSNYGMAWVRQAPGKGLEWVASIHSGGGDTYYRDSVKGRFTISRDNAKNSLYLQMNSLRAEDTAVYYCARGRTPTGYYFDHWGQGTMVTVSS VL: AIQLTQSPSSLSASVGDRVTITCRASEGIHNGLAWYQQKPGKAPKLLIYNANSLHSRVPSRFSGSGSGTDFTLTISSLQPEDFATYFCQQYYDYPLTFGQGTKLEIK"
